Assay [1] has as its target T1, full-length KIF1C(WT)−Flag−EGFP (UniProt O43896).
T1 sequence: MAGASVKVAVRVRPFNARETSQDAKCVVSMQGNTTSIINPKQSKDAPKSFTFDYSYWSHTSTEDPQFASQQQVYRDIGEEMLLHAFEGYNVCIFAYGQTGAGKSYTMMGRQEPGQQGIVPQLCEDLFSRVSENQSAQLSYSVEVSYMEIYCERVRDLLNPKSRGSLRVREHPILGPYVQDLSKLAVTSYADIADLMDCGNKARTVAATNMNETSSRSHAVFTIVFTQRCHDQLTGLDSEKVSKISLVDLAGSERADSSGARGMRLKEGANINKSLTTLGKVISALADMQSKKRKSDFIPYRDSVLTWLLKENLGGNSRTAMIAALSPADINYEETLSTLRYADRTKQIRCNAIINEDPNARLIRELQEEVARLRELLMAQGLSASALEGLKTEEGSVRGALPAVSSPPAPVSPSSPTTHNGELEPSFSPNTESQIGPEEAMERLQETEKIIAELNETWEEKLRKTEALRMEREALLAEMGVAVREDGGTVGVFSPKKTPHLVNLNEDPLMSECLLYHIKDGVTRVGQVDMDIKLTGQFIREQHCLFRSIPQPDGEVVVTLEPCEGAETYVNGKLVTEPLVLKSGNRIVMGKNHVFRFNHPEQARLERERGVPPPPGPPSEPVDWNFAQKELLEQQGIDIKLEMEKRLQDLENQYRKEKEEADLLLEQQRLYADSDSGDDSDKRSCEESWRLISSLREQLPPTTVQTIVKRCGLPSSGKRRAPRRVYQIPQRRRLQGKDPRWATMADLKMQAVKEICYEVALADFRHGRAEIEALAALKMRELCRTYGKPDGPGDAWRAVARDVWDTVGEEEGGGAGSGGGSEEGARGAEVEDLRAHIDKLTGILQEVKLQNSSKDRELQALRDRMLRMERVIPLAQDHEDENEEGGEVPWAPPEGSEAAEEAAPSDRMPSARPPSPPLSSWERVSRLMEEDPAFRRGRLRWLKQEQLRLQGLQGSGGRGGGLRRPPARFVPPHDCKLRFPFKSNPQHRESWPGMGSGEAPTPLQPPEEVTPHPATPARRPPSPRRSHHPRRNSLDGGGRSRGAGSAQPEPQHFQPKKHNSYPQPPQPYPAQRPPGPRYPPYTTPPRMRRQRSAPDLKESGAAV

For assay [2], the target named is T2, full-length KIF1C(Y757A ∙ F764A)−Flag−EGFP (UniProt O43896).
T2 sequence: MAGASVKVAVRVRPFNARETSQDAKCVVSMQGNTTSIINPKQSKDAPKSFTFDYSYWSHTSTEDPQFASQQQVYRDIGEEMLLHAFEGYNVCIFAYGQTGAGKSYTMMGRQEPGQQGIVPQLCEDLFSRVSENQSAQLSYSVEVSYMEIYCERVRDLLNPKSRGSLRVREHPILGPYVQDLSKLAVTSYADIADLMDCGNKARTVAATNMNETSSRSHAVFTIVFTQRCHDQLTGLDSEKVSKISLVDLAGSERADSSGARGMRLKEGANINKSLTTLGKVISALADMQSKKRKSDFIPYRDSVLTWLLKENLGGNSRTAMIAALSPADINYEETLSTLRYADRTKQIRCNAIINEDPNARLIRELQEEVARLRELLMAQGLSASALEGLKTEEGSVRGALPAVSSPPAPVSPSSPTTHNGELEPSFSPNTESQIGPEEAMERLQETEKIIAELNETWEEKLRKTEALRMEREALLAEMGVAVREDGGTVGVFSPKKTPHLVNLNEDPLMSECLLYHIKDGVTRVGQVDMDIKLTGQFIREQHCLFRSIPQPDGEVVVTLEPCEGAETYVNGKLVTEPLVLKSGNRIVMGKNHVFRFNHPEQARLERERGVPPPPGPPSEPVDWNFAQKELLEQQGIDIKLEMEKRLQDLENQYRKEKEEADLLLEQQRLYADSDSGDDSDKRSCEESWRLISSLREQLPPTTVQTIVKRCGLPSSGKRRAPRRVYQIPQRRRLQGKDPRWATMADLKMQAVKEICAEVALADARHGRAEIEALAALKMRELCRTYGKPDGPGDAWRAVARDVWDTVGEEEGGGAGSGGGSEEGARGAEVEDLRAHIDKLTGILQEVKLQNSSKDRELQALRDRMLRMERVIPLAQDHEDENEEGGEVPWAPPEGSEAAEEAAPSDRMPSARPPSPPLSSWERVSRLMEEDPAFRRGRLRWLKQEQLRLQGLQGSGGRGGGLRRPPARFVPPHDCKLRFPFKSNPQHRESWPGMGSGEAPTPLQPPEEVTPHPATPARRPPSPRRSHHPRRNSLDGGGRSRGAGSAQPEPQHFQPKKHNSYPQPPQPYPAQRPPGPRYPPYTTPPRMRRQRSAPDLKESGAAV

B1: full-length Hook3(V614E)−Myc−FuRed (natural protein)
chain: MFSVESLERAELCESLLTWIQTFNVDAPCQTVEDLTNGVVMAQVLQKIDPAYFDENWLNRIKTEVGDNWRLKISNLKKILKGILDYNHEILGQQINDFTLPDVNLIGEHSDAAELGRMLQLILGCAVNCEQKQEYIQAIMMMEESVQHVVMTAIQELMSKESPVSAGNDAYVDLDRQLKKTTEELNEALSAKEEIAQRCHELDMQVAALQEEKSSLLAENQVLMERLNQSDSIEDPNSPAGRRHLQLQTQLEQLQEETFRLEAAKDDYRIRCEELEKEISELRQQNDELTTLADEAQSLKDEIDVLRHSSDKVSKLEGQVESYKKKLEDLGDLRRQVKLLEEKNTMYMQNTVSLEEELRKANAARSQLETYKRQVVELQNRLSEESKKADKLDFEYKRLKEKVDSLQKEKDRLRTERDSLKETIEELRCVQAQEGQLTTQGLMPLGSQESSDSLAAEIVTPEIREKLIRLQHENKMLKLNQEGSDNEKIALLQSLLDDANLRKNELETENRLVNQRLLEVQSQVEELQKSLQDQGSKAEDSVLLKKKLEEHLEKLHEANNELQKKRAIIEDLEPRFNNSSLKIEELQEALRKKEEEMKQMEERYKKYLEKAKSEIRTLDPKQNQGAAPEIQALKNQLQERDRLFHSLEKEYEKTKSQREMEEKYIVSAWYNMGMTLHKKAAEDRLASTGSGQSFLARQRQATSSRRSYPGHVQPATAR
Regarding B1, the tail/cytoplasm ratio of Hook3−Myc−FuRed upon co-expression in RPE1 cells, 16 h post transfection (tail/cytoplasm ratio) in assay [1] and in assay [2] was 0.7 throughout.

B2: full-length Hook3(WT)−Myc−FuRed (natural protein)
chain: MFSVESLERAELCESLLTWIQTFNVDAPCQTVEDLTNGVVMAQVLQKIDPAYFDENWLNRIKTEVGDNWRLKISNLKKILKGILDYNHEILGQQINDFTLPDVNLIGEHSDAAELGRMLQLILGCAVNCEQKQEYIQAIMMMEESVQHVVMTAIQELMSKESPVSAGNDAYVDLDRQLKKTTEELNEALSAKEEIAQRCHELDMQVAALQEEKSSLLAENQVLMERLNQSDSIEDPNSPAGRRHLQLQTQLEQLQEETFRLEAAKDDYRIRCEELEKEISELRQQNDELTTLADEAQSLKDEIDVLRHSSDKVSKLEGQVESYKKKLEDLGDLRRQVKLLEEKNTMYMQNTVSLEEELRKANAARSQLETYKRQVVELQNRLSEESKKADKLDFEYKRLKEKVDSLQKEKDRLRTERDSLKETIEELRCVQAQEGQLTTQGLMPLGSQESSDSLAAEIVTPEIREKLIRLQHENKMLKLNQEGSDNEKIALLQSLLDDANLRKNELETENRLVNQRLLEVQSQVEELQKSLQDQGSKAEDSVLLKKKLEEHLEKLHEANNELQKKRAIIEDLEPRFNNSSLKIEELQEALRKKEEEMKQMEERYKKYLEKAKSVIRTLDPKQNQGAAPEIQALKNQLQERDRLFHSLEKEYEKTKSQREMEEKYIVSAWYNMGMTLHKKAAEDRLASTGSGQSFLARQRQATSSRRSYPGHVQPATAR
As for B2, the tail/cytoplasm ratio of Hook3−Myc−FuRed upon co-expression in RPE1 cells, 16 h post transfection (tail/cytoplasm ratio) in assay [2] amounted to 0.7.
